Laboratory results as given in patent publication US7572764B2, “Uses of chemically-modified cholinesterases for detoxification of organophosporus compounds” (priority 2001, dated 2009).

B1: PEGylated BChE (partially sialylated) (conjugate, UniProt P06276 29-602, looked up)
Cholinesterase: EDDIIIATKNGKVRGMNLTVFGGTVTAFLGIPYAQPPLGRLRFKKPQSLTKWSDIWNATKYANSCCQNIDQSFPGFHGSEMWNPNTDLSEDCLYLNVWIPAPKPKNATVLIWIYGGGFQTGTSSLHVYDGKFLARVERVIVVSMNYRVGALGFLALPGNPEAPGNMGLFDQQLALQWVQKNIAAFGGNPKSVTLFGESAGAASVSLHLLSPGSHSLFTRAILQSGSFNAPWAVTSLYEARNRTLNLAKLTGCSRENETEIIKCLRNKDPQEILLNEAFVVPYGTPLSVNFGPTVDGDFLTDMPDILLELGQFKKTQILVGVNKDEGTAFLVYGAPGFSKDNNSIITRKEFQEGLKIFFPGVSEFGKESILFHYTDWVDDQRPENYREALGDVVGDYNFICPALEFTKKFSEWGNNAFFYYFEHRSSKLPWPEWMGVMHGYEIEFVFGLPLERRDNYTKAEEILSRSIVKRWANFAKYGNPNETQNNSTSWPVFKSTEQKYLTLNTESTRIMTKLRAQQCRFWTSFFPKVLEMTGNIDEAEWEWKAGFHRWNNYMMDWKNQFNDYTSKKESCVGL
modifications: PEG; partially sialylated
B2: AChE-PEG-5000 high ratio (conjugate, UniProt P22303 32-614, looked up)
Acetylcholinesterase: EGREDAELLVTVRGGRLRGIRLKTPGGPVSAFLGIPFAEPPMGPRRFLPPEPKQPWSGVVDATTFQSVCYQYVDTLYPGFEGTEMWNPNRELSEDCLYLNVWTPYPRPTSPTPVLVWIYGGGFYSGASSLDVYDGRFLVQAERTVLVSMNYRVGAFGFLALPGSREAPGNVGLLDQRLALQWVQENVAAFGGDPTSVTLFGESAGAASVGMHLLSPPSRGLFHRAVLQSGAPNGPWATVGMGEARRRATQLAHLVGCPPGGTGGNDTELVACLRTRPAQVLVNHEWHVLPQESVFRFSFVPVVDGDFLSDTPEALINAGDFHGLQVLVGVVKDEGSYFLVYGAPGFSKDNESLISRAEFLAGVRVGVPQVSDLAAEAVVLHYTDWLHPEDPARLREALSDVVGDHNVVCPVAQLAGRLAAQGARVYAYVFEHRASTLSWPLWMGVPHGYEIEFIFGIPLDPSRNYTAEEKIFAQRLMRYWANFARTGDPNEPRDPKAPQWPPYTAGAQQYVSLDLRPLEVRRGLRAQACAFWNRFLPKLLSATDTLDEAERQWKAEFHRWSSYMVHWKNQFDHYSKQDRCSDL
modifications: PEG-5000, high ratio

Assay: Clearance experiments in mice, pharmacokinetic profiles
Experimental: The pharmacokinetic profiles of non-modified and various preparations of PEG-modified AChE were resolved. Clearance experiments in mice (3 to 6 ICR male mice per enzyme sample) and analysis of pharmacokinetic profiles were carried out as described essentially previously [Kronman, C., et al. (1992), Gene 121, 295-304]. The study was approved by the local ethical committee on animal experiments. Mice were injected with the various rHuAChE preparations (40 μg/mouse in 0.2 ml PBS). Residual AChE activity in blood samples was measured and all values were corrected for background hydrolytic activity in the blood (using samples withdrawn 1 hour before performing the experiment). AChE activity values in samples removed immediately after injection were assigned a value of 100% and used for calculation of residual activity. […] This model enables determination of the parameters A and B which represent the fractions of the material removed from the circulation in the first-fast and second-slow elimination phases respectively, and T1/2α and T1/2β which represent the circulatory half-life values of the enzyme in the fast and slow phases. The pharmacokinetic parameters MRT (mean residence time, which reflects the average length of time the administered molecules are retained in the organism) and CL (clearance, which represents the proportionality factor relating the rate of substance elimination to its plasma concentration (CL=dose/area under the concentration-time curve), were independently obtained by analyzing the clearance data according to a noncompartmental pharmacokinetic model using the WinNonlin computer program. The comparative results are set forth in Table 3 below.

Molecule | circulatory residence time (in words) (mice) | T1/2[…] (circulatory half-life, fast phase, ICR mice, 40 μg/mouse) [h] | T1/2β (circulatory half-life, slow phase, ICR mice, 40 μg/mouse) [h] | A (% of total) (fraction removed in first-fast elimination phase, ICR mice, 40 μg/mouse) | B (% of total) (fraction removed in second-slow elimination phase, ICR mice, 40 μg/mouse) | MRT (mean residence time, noncompartmental model, mice) [h] | Clearance (noncompartmental model, ICR mice, 40 μg/mouse) [mL/min/kg]
B1 | significantly increased |  |  |  |  |  | 
B2 |  | 0.467 ± 0.083 | 9 ± 1.17 | 46 ± 3 % of total | 64 ± 3 % of total | 12.3 ± 1.33 | 0.22
